{"source": "patent US20250043302A1", "about": "“MUTATED HYDROXYPHENYLPYRUVATE DIOXYGENASE POLYPEPTIDE, AND CODING GENE AND USE THEREOF” (BEIJING DABEINONG BIOTECHNOLOGY CO., LTD., priority 2021, published 2025)", "molecules": {"B1": {"name": "BnHPPDm-F383W-02: nucleotide sequence encoding Brassica napus HPPD with F383W; vector DBN11744 (nucleic acid)", "DNA": "ATGGGACATGAAAACGCGGCAGTGTGTGAAACTCAACAACATGATGACGCCGCCTCCCCGGGGTTTAAACTTGTCGGGTTCTCAAAATTTGTTAGGAAGAATCCAAAGTCTGACAAGTTCAAGGTGAAACGCTTCCACCACATCGAGTTCTGGTGCGGGGATGCAACAAATGTTTCACGCCGCTTTTCATGGGGACTAGGAATGAGGTTTAGCGCAAAGAGTGATCTCTCCACTGGTAATATGGTTCATGCGAGCTACTTGCTCACATCTGGAGACCTGAGATTCCTCTTCACCGCACCATATTCTCCCTCCCTGTCAGCTGGTGAAGCTCAGCCTTCAGCAACTGCAAGTATCCCTTCGTTTGATCATGCATCGTGCAGGTCTTTCTTCAGTTCACATGGACTCGGCGTCAGAGCAGTAGCGATCGAAGTAGAGGATGCTGAATCAGCTTTCTCCATATCTGTCGCCAACGGCGCGGTGCCTTCTTCTCCACCAAACGTCTTGAATGGTGCTGTTACCATTGCTGAGGTGAAGCTGTACGGAGATGTTGTTTTAAGATATGTTTCATATTACAATGGGACCGTTTCTTTTCTTCCCGGCTTTGAATCTGTTGATGATACTTCTTCCTTCCCTCTTGATTATGGGATCAGGCGGCTGGACCACGCCGTCGGCAACGTGCCGGAGTTAGGTCCTGCTTTGACATATCTTGCCGGCTTCACTGGATTCCATCAATTTGCAGAGTTTACGGCTGACGACGTGGGGACCGCGGAGAGTGGGCTGAACTCAGCAGTCTTGGCCAACAATGATGAAATGGTGCTCCTCCCCATCAATGAACCTGTGCATGGAACAAAGAGAAAGTCGCAGATTCAAACATTTTTAGAGCACAATGAGGGAGCTGGGCTACAGCACCTCGCATTGATGTCAGAAGATATTTTTCGAACGTTGAGGGAGATGCGGAAACGATCTGGTGTAGGCGGCTTTGACTTCATGCCATCCCCTCCGCCAACCTACTACAAGAACCTGAAGAAGAGGGTTGGAGACGTCCTTTCCGAGGAGCAAATTGAAGAATGTGAGGAGCTTGGAATTCTGGTGGACAGAGATGATCAAGGAACACTACTTCAGATCTTCACAAAACCATTGGGCGACAGGCCAACGATATGGATTGAGATCATTCAGCGCGTTGGATGCATGAAGCGTGATGAGGAAGGGAAGGTCTACCAGAGTGGCGGTTGTGGTGGATTTGGAAAAGGAAATTTTTCTGAGCTGTTCAAAAGCATAGAAGAGTATGAGAAAACATTGGAGGCCAAGCAGCTTGTTGGTTGA", "modifications": "BnHPPDm-F383W-02 Nucleotide Sequence", "notes": "vector DBN11744"}}, "type_in_all_cases": "in vivo", "key": {"[1]": {"system": "Arabidopsis thaliana T1 plants", "assay": "Topramezone tolerance of transgenic Arabidopsis thaliana T1 plants (spray, bleached leaf area grade, damage score)", "details": "7 DAT, Table 4; for Classification and statistics of the grade of pesticide damage: Grade 0 / Classification and statistics of the grade of pesticide damage: Grade 1 / Classification and statistics of the grade of pesticide damage: Grade 2 / Classification and statistics of the grade of pesticide damage: Grade 3: number of plants; for Scores: pesticide damage score 0-100", "summary_of_the_method": "(§1)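 Damage graded 0–3 from the proportion of bleached leaf area 7 days after spraying. Plants were glufosinate-selected T1 lines, 18 days after sowing, plus vector and wild-type controls. Rates: mesotrione 52.5–420, isoxaflutole 35–280, topramezone 25–200 g ai/ha, with water (0×).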"}, "[2]": {"system": "Arabidopsis thaliana T1 plants", "assay": "Isoxaflutole tolerance of transgenic Arabidopsis thaliana T1 plants (spray, bleached leaf area grade, damage score)", "parameters": "Scores (pesticide damage): scale not given here", "details": "spray, Arabidopsis thaliana T1 plants; for Classification and statistics of the grade of pesticide damage: Grade 0 (number of plants) / Classification and statistics of the grade of pesticide damage: Grade 1 (number of plants) / Classification and statistics of the grade of pesticide damage: Grade 2 (number of plants) / Classification and statistics of the grade of pesticide damage: Grade 3 (number of plants): 16 plants", "summary_of_the_method": "as §1"}, "[3]": {"system": "Arabidopsis thaliana T1 plants", "assay": "Mesotrione tolerance of transgenic Arabidopsis thaliana T1 plants (spray, bleached leaf area grade, damage score)", "parameters": "Scores: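 damage score 0-100 computed as Σ(N×S)/(T×M)×100 over grades 0-3 with higher meaning more damage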", "details": "Arabidopsis thaliana T1 plants; for Grade 0 (classification and statistics of the grade of pesticide damage; number of plants) / Grade 1 (classification and statistics of the grade of pesticide damage; number of plants) / Grade 2 (classification and statistics of the grade of pesticide damage; number of plants) / Grade 3 (classification and statistics of the grade of pesticide damage; number of plants): 16 plants", "summary_of_the_method": "as §1"}, "[4]": {"details": "isoxaflutole 35 g ai/ha (0.5x field concentration)"}, "[5]": {"details": "isoxaflutole 70 g ai/ha (1x field concentration)"}}, "data": [{"molecule": "B1", "values": [{"measurement": "Classification and statistics of the grade of pesticide damage: Grade 0", "setting": "[1]; topramezone 25 g ai/ha (1×)", "result": 0}, {"measurement": "Classification and statistics of the grade of pesticide damage: Grade 1", "setting": "[1]; topramezone 25 g ai/ha (1×)", "result": 3}, {"measurement": "Classification and statistics of the grade of pesticide damage: Grade 2", "setting": "[1]; topramezone 25 g ai/ha (1×)", "result": 9}, {"measurement": "Classification and statistics of the grade of pesticide damage: Grade 3", "setting": "[1]; topramezone 25 g ai/ha (1×)", "result": 4}, {"measurement": "Classification and statistics of the grade of pesticide damage: Grade 0", "setting": "[1]; topramezone 100 g ai/ha (4×)", "result": 0}, {"measurement": "Classification and statistics of the grade of pesticide damage: Grade 1", "setting": "[1]; topramezone 100 g ai/ha (4×)", "result": 0}, {"measurement": "Classification and statistics of the grade of pesticide damage: Grade 2", "setting": "[1]; topramezone 100 g ai/ha (4×)", "result": 0}, {"measurement": "Classification and statistics of the grade of pesticide damage: Grade 3", "setting": "[1]; topramezone 100 g ai/ha (4×)", "result": 16}, {"measurement": "Scores", "setting": "[1]; topramezone 25 g ai/ha (1×)", "result": 69}, {"measurement": "Scores", "setting": "[1]; topramezone 100 g ai/ha (4×)", "result": 100}, {"measurement": "Resistance evaluation", "setting": "[1]; topramezone 25 g ai/ha (1×)", "result": "non-resistant (non-resistant plants (scores 68-100))"}, {"measurement": "Resistance evaluation", "setting": "[1]; topramezone 100 g ai/ha (4×)", "result": "non-resistant (non-resistant plants (scores 68-100))"}, {"measurement": "Resistance evaluation", "setting": "[2]; [4]", "result": "Non-resistant"}, {"measurement": "Scores (pesticide damage)", "setting": "[2]; [4]", "result": 94}, {"measurement": "Classification and statistics of the grade of pesticide damage: Grade 0 (number of plants)", "setting": "[2]; [4]", "result": 0}, {"measurement": "Classification and statistics of the grade of pesticide damage: Grade 1 (number of plants)", "setting": "[2]; [4]", "result": 0}, {"measurement": "Classification and statistics of the grade of pesticide damage: Grade 2 (number of plants)", "setting": "[2]; [4]", "result": 3}, {"measurement": "Classification and statistics of the grade of pesticide damage: Grade 3 (number of plants)", "setting": "[2]; [4]", "result": 13}, {"measurement": "Resistance evaluation", "setting": "[2]; [5]", "result": "Non-resistant"}, {"measurement": "Scores (pesticide damage)", "setting": "[2]; [5]", "result": 100}, {"measurement": "Classification and statistics of the grade of pesticide damage: Grade 0 (number of plants)", "setting": "[2]; [5]", "result": 0}, {"measurement": "Classification and statistics of the grade of pesticide damage: Grade 1 (number of plants)", "setting": "[2]; [5]", "result": 0}, {"measurement": "Classification and statistics of the grade of pesticide damage: Grade 2 (number of plants)", "setting": "[2]; [5]", "result": 0}, {"measurement": "Classification and statistics of the grade of pesticide damage: Grade 3 (number of plants)", "setting": "[2]; [5]", "result": 16}, {"measurement": "Resistance evaluation", "setting": "[3]; mesotrione 52.5 g ai/ha", "result": "Non-resistant"}, {"measurement": "Scores", "setting": "[3]; mesotrione 52.5 g ai/ha", "result": 100}, {"measurement": "Grade 0 (classification and statistics of the grade of pesticide damage; number of plants)", "setting": "[3]; mesotrione 52.5 g ai/ha", "result": 0}, {"measurement": "Grade 1 (classification and statistics of the grade of pesticide damage; number of plants)", "setting": "[3]; mesotrione 52.5 g ai/ha", "result": 0}, {"measurement": "Grade 2 (classification and statistics of the grade of pesticide damage; number of plants)", "setting": "[3]; mesotrione 52.5 g ai/ha", "result": 0}, {"measurement": "Grade 3 (classification and statistics of the grade of pesticide damage; number of plants)", "setting": "[3]; mesotrione 52.5 g ai/ha", "result": 16}, {"measurement": "Resistance evaluation", "setting": "[3]; mesotrione 105 g ai/ha", "result": "Non-resistant"}, {"measurement": "Scores", "setting": "[3]; mesotrione 105 g ai/ha", "result": 100}, {"measurement": "Grade 0 (classification and statistics of the grade of pesticide damage; number of plants)", "setting": "[3]; mesotrione 105 g ai/ha", "result": 0}, {"measurement": "Grade 1 (classification and statistics of the grade of pesticide damage; number of plants)", "setting": "[3]; mesotrione 105 g ai/ha", "result": 0}, {"measurement": "Grade 2 (classification and statistics of the grade of pesticide damage; number of plants)", "setting": "[3]; mesotrione 105 g ai/ha", "result": 0}, {"measurement": "Grade 3 (classification and statistics of the grade of pesticide damage; number of plants)", "setting": "[3]; mesotrione 105 g ai/ha", "result": 16}]}]}
